Results on seven molecules are retold here after PMC6050341, “Direct observation of DNA target searching and cleavage by CRISPR-Cas12a”.

Data set [1] deals with T1, AsCas12a WT (Acidaminococcus sp., UniProt U2UMQ6 1-1307). The data set can be described thus: single-molecule FRET; 10 mM Mg2+; 20 nM RNP; transient S1 lifetime 0.13 +/- 0.01 s; stable stage II lifetime 94 s; smFRET: 10 mM Tris-HCl pH 8.0, 100 mM NaCl (100 mM KCl in Figs 4, 5), 10 mM MgCl2, 1 mM DTT, oxygen scavenger, 37 C; SpCas9 in NEB buffer 3.
In data set [2] the target is T1, AsCas12a WT. The data set can be described thus: single-particle tracking (TIRF); loose binding; drift rate rises with flow; smFRET: 10 mM Tris-HCl pH 8.0, 100 mM NaCl (100 mM KCl in Figs 4, 5), 10 mM MgCl2, 1 mM DTT, oxygen scavenger, 37 C; SpCas9 in NEB buffer 3.
In data set [3] the target is T2, dAsCas12a (catalytically dead) (Acidaminococcus sp., UniProt U2UMQ6 1-1307, E993A). The data set can be described thus: single-molecule FRET; 10 mM Mg2+; stable binding reached; smFRET: 10 mM Tris-HCl pH 8.0, 100 mM NaCl (100 mM KCl in Figs 4, 5), 10 mM MgCl2, 1 mM DTT, oxygen scavenger, 37 C; SpCas9 in NEB buffer 3. The following applies: protein: recombinant; tags: His tag implied (pET28b, Ni-NTA); label: crRNA 3' Cy5; DNA Cy3, 5' biotin; DNA 5' overhang 2 nt.

For data set [4], the target named is T1, AsCas12a WT. The data set can be described thus: single-molecule FRET; 5 nM AsCas12a, 10 nM crRNA; no stable binding, only short events; smFRET: 10 mM Tris-HCl pH 8.0, 100 mM NaCl (100 mM KCl in Figs 4, 5), 10 mM MgCl2, 1 mM DTT, oxygen scavenger, 37 C; SpCas9 in NEB buffer 3.
Data set [5] addresses T2, dAsCas12a (catalytically dead). The data set can be described thus: single-molecule FRET; 10 mM Mg2+; 100 mM KCl; no specific binding events (t < 30 ms); smFRET: 10 mM Tris-HCl pH 8.0, 100 mM NaCl (100 mM KCl in Figs 4, 5), 10 mM MgCl2, 1 mM DTT, oxygen scavenger, 37 C; SpCas9 in NEB buffer 3. The following applies: protein: recombinant; tags: His tag implied (pET28b, Ni-NTA); label: crRNA 3' Cy5; DNA Cy3, 5' biotin; DNA 5' overhang 2 nt.

Data set [6] addresses T1, AsCas12a WT. The data set can be described thus: single-molecule FRET; 10 mM Mg2+; 10 nM protein, 20 nM crRNA; smFRET: 10 mM Tris-HCl pH 8.0, 100 mM NaCl (100 mM KCl in Figs 4, 5), 10 mM MgCl2, 1 mM DTT, oxygen scavenger, 37 C; SpCas9 in NEB buffer 3.
Data set [7] has as its target T1, AsCas12a WT. The data set can be described thus: single-particle tracking (TIRF); 1D diffusion, then stable stall at target about 50 s; smFRET: 10 mM Tris-HCl pH 8.0, 100 mM NaCl (100 mM KCl in Figs 4, 5), 10 mM MgCl2, 1 mM DTT, oxygen scavenger, 37 C; SpCas9 in NEB buffer 3.

B1: DNMT1 crRNA + target DNA WT (Fig 2) (mixed)
RNA: AAUUUCUACUCUUGUAGAUCUGAUGGUCCAUGUCUGUUACUC
DNA 1: TTTTTTCACTTGACAGGCGAGTAACAGACATGGACCATCAGGAAACATTAACGTACT
DNA 2: AGTACGTTAATGTTTCCTGATGGTCCATGTCTGTTACTCGCCTGTCAAGTG
modifications: internal amino-dT for dye
For the molecule B1, the binding result with AsCas12a WT [1] is “binds”.

B2: DNMT1 crRNA + lambda DNA (mixed)
RNA: AAUUUCUACUCUUGUAGAUCUGAUGGUCCAUGUCUGUUACUC
As for B2, the binding result in the data set with AsCas12a WT [2] is recorded as “binds”.

B3: DNMT1 crRNA + 17 match DNA (mixed)
RNA: AAUUUCUACUCUUGUAGAUCUGAUGGUCCAUGUCUGUUACUC
DNA 1: TTCACTTGACAGGCACTCGTCAGACATGGACCATCAGGAAACATTAACGTACT
DNA 2: AGTACGTTAATGTTTCCTGATGGTCCATGTCTGACGAGTGCCTGTCAAGTG
With B3, the binding result in data set [3] was “binds”.

B4: DNMT1 crRNA + target w/o PAM (mixed)
RNA: AAUUUCUACUCUUGUAGAUCUGAUGGUCCAUGUCUGUUACUC
DNA 1: TTCACTTGACAGGCGAGTAACAGACATGGACCATCAGGAAGCATAAGCGTACT
DNA 2: AGTACGCTTATGCTTCCTGATGGTCCATGTCTGTTACTCGCCTGTCAAGTG
For B4, the binding result with AsCas12a WT [4] is reported as “no binding”.

B5: DNMT1 crRNA + 0 match DNA (mixed)
RNA: AAUUUCUACUCUUGUAGAUCUGAUGGUCCAUGUCUGUUACUC
DNA 1: TTCACTTGACAGGCACTCGTCTCAACGCACACTGATAGAAACATACACGTACT
DNA 2: AGTACGTGTATGTTTCTATCAGTGTGCGTTGAGACGAGTGCCTGTCAAGTG
Regarding B5, the binding result in data set [5] is given as “no binding”.

B6: DNMT1 crRNA + target WT (Fig 5) (mixed)
RNA: AAUUUCUACUCUUGUAGAUCUGAUGGUCCAUGUCUGUUACUC
DNA 1: GGATCTCTTAAGTCGTTGAGTAACAGACATGGACCATCAGGAAACACAGTGCAGTATTAGCACTTTTT
DNA 2: GTGCTAATACTGCACTGTGTTTCCTGATGGTCCATGTCTGTTACTCAACGACTTAAGAGATCC
As to B6, the binding result with AsCas12a WT [6] is given as “binds”.

B7: 80% crRNA + 21 kb DNA (mixed)
RNA: AAUUUCUACUCUUGUAGAUACGGUCGAGCGUCAGCGUCCGGG
For B7, the binding result with AsCas12a WT [7] is recorded as “binds”.
